From US20230151089A1 (SYNGLE THERAPEUTICS B V, published 2023)

B1: 26F1 TaFv (tandem single-chain variable fragment) (scFv)
scFv: DVQLQESGPGLVKPSQSLSLTCTVTGYSITSDYAWNWIRQFPGNKLEWLGYISYSGNTYYNPSLKSRISITRDTSKNQFFLHLNSVTTEDTATYYCAGNYVRWGQGTLVTVSAGGGGSGGGGSGGGGSDVVMTQTPLTLSVTIGQPASISCKSSQSLLYTNGKTYLNWLLQRPGQSPKRLIYLVSKLDSGVPDRFSGSGSGTDFTLKISRVEAEDLGVYYCLQSSHFPHTFGSGTKLEIKGGGGSDVQLQESGPGLVKPSQSLSLTCTVTGYSITSDYAWNWIRQFPGNKLEWLGYISYSGNTYYNPSLKSRISITRDTSKNQFFLHLNSVTTEDTATYYCAGNYVRWGQGTLVTVSAGGGGSGGGGSGGGGSDVVMTQTPLTLSVTIGQPASISCKSSQSLLYTNGKTYLNWLLQRPGQSPKRLIYLVSKLDSGVPDRFSGSGSGTDFTLKISRVEAEDLGVYYCLQSSHFPHTFGSGTKLEIK
B2: 26F1 scFv (single-chain variable fragment) (scFv)
scFv: DVQLQESGPGLVKPSQSLSLTCTVTGYSITSDYAWNWIRQFPGNKLEWLGYISYSGNTYYNPSLKSRISITRDTSKNQFFLHLNSVTTEDTATYYCAGNYVRWGQGTLVTVSAGGGGSGGGGSGGGGSDVVMTQTPLTLSVTIGQPASISCKSSQSLLYTNGKTYLNWLLQRPGQSPKRLIYLVSKLDSGVPDRFSGSGSGTDFTLKISRVEAEDLGVYYCLQSSHFPHTFGSGTKLEIK
B3: antibody 26F1 (antibody, mouse IgG2a, kappa, V domains shown)
VH: DVQLQESGPGLVKPSQSLSLTCTVTGYSITSDYAWNWIRQFPGNKLEWLGYISYSGNTYYNPSLKSRISITRDTSKNQFFLHLNSVTTEDTATYYCAGNYVRWGQGTLVTVSA
VL: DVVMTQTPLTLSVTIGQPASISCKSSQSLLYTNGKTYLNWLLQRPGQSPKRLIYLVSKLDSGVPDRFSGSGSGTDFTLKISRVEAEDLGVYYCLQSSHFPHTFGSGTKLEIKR
notes: Mouse monoclonal; Isotype is said to be preferably IgG2a kappa; also called 26F1 antibody; IgG 26F1

How the values were obtained:
[1] = biological target: T1, alpha-synuclein oligomers (UniProt P37840 1-140); assay: ELISA, alpha-Syn oligomer coated plate
[2] = biological target: T1, alpha-synuclein oligomers; assay: ELISA on alpha-Syn oligomer coat; half of the highest OD 450 nm, drawn table
[3] = biological target: T1, alpha-synuclein oligomers; assay: ELISA on alpha-Syn oligomer coat; row 'Titre (nM)' of the drawn table, concentration at DO (50%)
[4] = biological target: T1, alpha-synuclein oligomers; assay: ELISA, read from the graph, reference alpha-Syn monomer
[5] = biological target: T1, alpha-synuclein oligomers; assay: ELISA, alpha-Syn oligomer coated plate, exp 1
Protocol: (§1) Binding affinities (EC50 values) towards different antigens were determined from ELISA experiments using antigen coated plates as follows. Absorbance data was corrected for background absorption obtained by incubating antigen coated plates without adding primary antibody but keeping all other parameters constant. The background corrected absorbance values were then plotted against the log value of the antibody concentration.
(§2) The curve was fitted using the Graphpad Prism software using the common binding function Abs450=Max/(1+10\hat{ }(([Log EC50−Log Ab]))) where “Abs450” is the background corrected experimental absorption, “Max” is the absorption upon complete binding saturation, “Log EC50” is the log of the EC50 value and “Log Ab” is the log of the antibody concentration.

[6] = biological target: T1, alpha-synuclein oligomers; assay: ELISA, alpha-Syn oligomer coated plate, exp 2
Protocol: as §1, §2

[7] = biological target: T1, alpha-synuclein oligomers; assay: ELISA on plates coated with ASO, ABO, AB fibrils, TAU oligo, TAU fibrils or no coat; antibody titrated, OD 450 nm
[8] = biological target: T1, alpha-synuclein oligomers; assay: ELISA on antigen-coated plate, antibody titrated in tenfold steps, OD 450-630 nm
Protocol: as §1, §2

[9] = biological target: T1, alpha-synuclein oligomers; assay: ELISA, ratio of binding affinities, reference alpha-Syn fibrils (FIG. 3)
Protocol: as §1, §2

[10] = biological target: T1, alpha-synuclein oligomers; assay: ELISA, alpha-Syn oligomer coated plate, exp 3
Protocol: as §1, §2

[11] = biological target: T1, alpha-synuclein oligomers; assay: ELISA, ratio of EC50 values, reference alpha-Syn fibrils
Protocol: as §1, §2

| Binder | EC50 [1] [nM] | DO (50%) [2] | EC50 [3] [nM] | specificity ratio of alpha-Syn oligomer compared to alpha-Syn monomer [4] | EC50 [5] [nM] | EC50 [6] [nM] | EC50 (read off the curve) [7] [µg/mL] | EC50 (read off the curve) [8] [pM] | binding affinity ratio alpha-Syn oligomers:alpha-Syn fibrils [9] [fold] | EC50 [10] [nM] | fold preference over alpha-Syn fibrils [11] [fold] |
| --- | --- | --- | --- | --- | --- | --- | --- | --- | --- | --- | --- |
| B1 | ~2 | 0.904 | 2.03 | ≥ 100 | – | – | – | – | – | – | – |
| B2 | ~3.7 | 0.744 | 3.66 | ≥ 100 | – | – | – | – | – | – | – |
| B3 | – | 1.31 | 0.0966 | – | 0.039 | 0.027 | ~0.01 | ~200 | ≥ 20 | 0.09 | 20 |
